In PMC8006170:

Substrate: NCC(=O)CCC(=O)O
Experiment: PbgS activity assay in lysate of overexpressing cells, Michaelis-Menten
Format: biochemical, Acinetobacter baumannii
Details: native wt lysate included as control to subtract basal activity

B1: PbgS(wt) (Acinetobacter baumannii ATCC 19606 = CIP 70.34 = JCM 6841) (protein)
chain: MGLQYSSRLTVMEYPPTYPSVIPNIEIVMTYTFNRPAFPATRMRRIRKNDQLRAMVSETQLTTNHLIYPVFVLPGQNQTQDIPSMPNIQRLSADLLLKKAERLLELGVSKLALFPVTPQEDKSLTAEAAWREDGLVQTTCRLLKKELPEMVLITDGALDPYTTHGQDGIIDETGYVLNDETVECLIKQALSHAEAGAEVIAPSDMMDGRIGAIRQALEANGHIYTNIMAYSAKYASSFYGPFRDAVGSASNLKGGNKYNYQMDFANRAEALHEIALDIQEGADMVIVKPGMPYLDVVREVKDTFGIPTFIYQVSGEYAMLAGAIQNGWLSDSVILESLMCCRRAGADGIWTYFAETAAEKLKEMN
**Q.** How did the Km turn out when B1 was run?
**A.** Its Km is 153 µM.
